Reference: patent publication US20250057918A1 (YALE UNIVERSITY, published 2025)

Tests used:
[1] = target: T1, mouse IL-18BP (amino acids 31-194) (mouse, UniProt Q9Z0M9 29-193, biotinylated on the AviTag (BirA ligase)); experiment: SPR; KD IL-18BP / KD IL-18Rα
T1 construct: Secreted decoy receptor; made in Expi293 cells (H7 signal peptide); the stated range is the same as for the human protein; also called mIL-18BP
T1 sequence: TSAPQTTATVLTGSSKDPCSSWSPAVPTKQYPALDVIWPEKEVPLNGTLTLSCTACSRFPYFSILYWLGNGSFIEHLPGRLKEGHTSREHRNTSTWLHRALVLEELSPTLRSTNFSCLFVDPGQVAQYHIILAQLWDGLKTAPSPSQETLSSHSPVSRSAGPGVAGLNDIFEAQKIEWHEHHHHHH
Experimental: (§1) By contrast, very little binding is observed with the same variants and mIL-18BP (right). (FIG. 11B) Representative surface plasmon resonance sensorgrams between immobilized biotinylated mIL-18BP and the murine DR-IL-18 variants.
(§2) Experiments were conducted using a Biacore™ T100 (Protein analysis interaction system) and carried out at 25° C. Biotinylated IL-18Rα or TL-18BP were immobilized onto a Biacore™ biotin capture chip (Series S CAP sensor chip, GE Healthcare) to yield an Rmax of ˜50 RU (IL-18Rα) or ˜10 RU (IL-18BP). Measurements were made with serial dilutions of the IL-18 variants in HEPES buffered Saline-P+ buffer (10 mM HEPES pH 7.4, 150 mM NaCl, 0.005% surfactant P20). The surface was regenerated by three 60-see injections of regeneration buffer (3/4 (v/v) 8M guanidine hydrochloride with 1/4 (v/v) 1M sodium hydroxide). Experiments were performed in multiple channels simultaneously for increased observations. All data were analyzed with the Biacore™ T100 evaluation software version 2.0 with a 1:1 Langmuir binding model.

[2] = target: T1, mouse IL-18BP (amino acids 31-194); experiment: SPR; KD BP / KD Ra normalized to WT IL-18
[3] = target: T1, mouse IL-18BP (amino acids 31-194); experiment: on-yeast isotherms; KD IL-18BP / KD IL-18Rα
[4] = target: T2, mouse IL-18Rα ectodomain (amino acids 19-329) (mouse, UniProt Q61098 19-329, biotinylated on the AviTag (BirA ligase)); experiment: flow cytometry, mIL-18Rα titrated on yeast-displayed murine IL-18 variant (binding isotherm, %Max)
T2 construct: range 19-329; Secreted from Expi293 cells (H7 signal peptide); also called mIL-18Rα; Ra
T2 sequence: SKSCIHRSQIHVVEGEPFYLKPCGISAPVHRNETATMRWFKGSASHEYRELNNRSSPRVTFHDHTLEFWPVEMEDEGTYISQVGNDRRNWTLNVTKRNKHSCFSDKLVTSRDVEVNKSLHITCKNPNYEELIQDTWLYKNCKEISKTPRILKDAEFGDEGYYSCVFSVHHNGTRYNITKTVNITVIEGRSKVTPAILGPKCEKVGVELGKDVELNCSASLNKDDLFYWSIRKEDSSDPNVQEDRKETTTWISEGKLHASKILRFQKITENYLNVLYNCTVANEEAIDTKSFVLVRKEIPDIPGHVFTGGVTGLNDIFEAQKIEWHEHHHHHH

[5] = target: T1, mouse IL-18BP (amino acids 31-194); experiment: SPR; KD IL-18BP / KD IL-18Rα; SPR; ratio of two KDs
Experimental: as §1, §2

[6] = target: T1, mouse IL-18BP (amino acids 31-194); experiment: SPR; KD BP / KD Ra normalized to WT IL-18; upper end tied to mA7 by Table 9
[7] = target: T1, mouse IL-18BP (amino acids 31-194); experiment: on-yeast isotherms; KD IL-18BP / KD IL-18Rα (10 µM used for NBD); on-yeast isotherms; 10 µM put in for NBD
[8] = target: T3, IL-18 receptor (IL-18R) on HEK-Blue IL-18 reporter cells (UniProt Q13478 19-541; O95256 20-599, limits assumed); experiment: cell-based or functional assay
T3 sequence (looked up) 1: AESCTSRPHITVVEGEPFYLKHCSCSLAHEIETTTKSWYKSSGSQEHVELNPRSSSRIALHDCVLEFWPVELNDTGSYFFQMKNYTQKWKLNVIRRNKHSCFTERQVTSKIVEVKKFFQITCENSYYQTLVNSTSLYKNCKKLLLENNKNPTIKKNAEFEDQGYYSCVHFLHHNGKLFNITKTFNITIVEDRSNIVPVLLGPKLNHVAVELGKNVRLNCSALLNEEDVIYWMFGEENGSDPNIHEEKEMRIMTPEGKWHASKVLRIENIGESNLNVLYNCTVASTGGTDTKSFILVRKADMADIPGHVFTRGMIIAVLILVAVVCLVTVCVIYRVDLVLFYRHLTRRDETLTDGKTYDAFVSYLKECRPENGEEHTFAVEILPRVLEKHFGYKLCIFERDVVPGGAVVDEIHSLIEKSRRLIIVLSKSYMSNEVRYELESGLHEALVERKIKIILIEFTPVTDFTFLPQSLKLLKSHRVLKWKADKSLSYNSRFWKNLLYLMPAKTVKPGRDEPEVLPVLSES
T3 sequence (looked up) 2: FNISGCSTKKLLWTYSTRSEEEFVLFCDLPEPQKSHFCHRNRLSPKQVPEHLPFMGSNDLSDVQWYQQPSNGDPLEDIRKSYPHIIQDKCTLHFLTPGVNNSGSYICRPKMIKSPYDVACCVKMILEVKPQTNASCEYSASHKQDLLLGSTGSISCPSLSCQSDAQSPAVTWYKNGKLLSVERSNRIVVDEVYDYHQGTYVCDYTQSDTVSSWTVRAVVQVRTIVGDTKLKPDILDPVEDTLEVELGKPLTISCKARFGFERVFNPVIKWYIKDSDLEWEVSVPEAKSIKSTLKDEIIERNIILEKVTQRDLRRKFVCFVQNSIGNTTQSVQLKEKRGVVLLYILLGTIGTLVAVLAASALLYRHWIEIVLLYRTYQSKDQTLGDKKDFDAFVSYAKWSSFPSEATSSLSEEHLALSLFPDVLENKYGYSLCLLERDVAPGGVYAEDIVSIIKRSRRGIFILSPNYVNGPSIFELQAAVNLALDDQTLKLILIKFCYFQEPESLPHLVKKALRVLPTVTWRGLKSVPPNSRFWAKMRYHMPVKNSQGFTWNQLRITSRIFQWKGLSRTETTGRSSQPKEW

[9] = target: T4, human IL-18BP (amino acids 31-194) (human, UniProt O95998 31-194, biotinylated on the AviTag (BirA ligase) where immobilized or used for staining); experiment: SPR; KD BP / KD Ra normalized to WT IL-18
T4 construct: Secreted decoy receptor; made in insect cells (gp67 signal peptide); also called hIL-18BP
T4 sequence: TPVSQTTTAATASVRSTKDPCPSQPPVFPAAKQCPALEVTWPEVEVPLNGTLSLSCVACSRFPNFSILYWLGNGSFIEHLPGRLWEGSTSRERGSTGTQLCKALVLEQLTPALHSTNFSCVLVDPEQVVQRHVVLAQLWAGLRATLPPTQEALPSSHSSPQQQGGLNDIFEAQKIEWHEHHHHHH

[10] = target: T4, human IL-18BP (amino acids 31-194); experiment: on-yeast isotherms; BP/Rα KD ratio normalized to WT
Experimental: (§3) Individual colonies of IL-18 yeast were grown overnight at 30° C. in SDCAA liquid media and induced in SGCAA liquid media for 1 day at 20° C. IL-18 display levels on yeast were verified by flow cytometry using an anti-cMyc tag antibody (anti-myc-PE; Cell Signaling Technologies). Receptor staining with biotinylated IL-18Rα (with or without IL-18Rβ) or biotinylated IL-18BP was performed in PBS supplemented with 0.5% BSA and 2 mM EDTA (PBE) on ice. All analysis was performed on a Sony SA3800 flow cytometer.
(§4) To additionally characterize the receptor binding activities of the DR-IL-18 variants, the cytokines were expressed recombinantly and surface plasmon resonance for IL-18Rα and IL-18BP was performed (see FIG. 5B for representative traces).

[11] = target: T4, human IL-18BP (amino acids 31-194); experiment: on-yeast isotherms; KD IL-18BP / KD IL-18Rα (20 µM used for NBD)
[12] = target: T5, human IL-18Rα ectodomain (amino acids 19-329) (human, UniProt Q13478 19-329, biotinylated on the AviTag (BirA ligase)); experiment: on-yeast binding isotherm, flow cytometry
T5 construct: range 19-329; Secreted from insect cells (gp67 signal peptide); also called hIL-18Rα; hIL-18Ra
T5 sequence: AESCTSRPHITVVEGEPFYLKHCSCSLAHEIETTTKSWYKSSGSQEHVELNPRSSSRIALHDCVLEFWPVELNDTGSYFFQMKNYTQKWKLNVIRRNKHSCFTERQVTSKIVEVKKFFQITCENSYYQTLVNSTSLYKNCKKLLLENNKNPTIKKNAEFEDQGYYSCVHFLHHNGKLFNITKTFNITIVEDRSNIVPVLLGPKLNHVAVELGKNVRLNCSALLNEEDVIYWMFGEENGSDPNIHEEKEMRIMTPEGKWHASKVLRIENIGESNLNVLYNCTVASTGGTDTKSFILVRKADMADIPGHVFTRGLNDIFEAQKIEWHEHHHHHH
Experimental: as §3, §4

[13] = target: T4, human IL-18BP (amino acids 31-194); experiment: SPR; KD IL-18BP / KD IL-18Rα; SPR; ratio of two KDs
Experimental: as §2, §4

[14] = target: T4, human IL-18BP (amino acids 31-194); experiment: on-yeast isotherms; KD IL-18BP / KD IL-18Rα (20 µM used for NBD); on-yeast isotherms; 20 µM put in for NBD
Experimental: as §3, §4

B1: wild-type mouse IL-18 (mature form) (ligand)
chain: NFGRLHCTTAVIRNINDQVLFVDKRQPVFEDMTDIDQSASEPQTRLIIYMYKDSEVRGLAVTLSVKDSKMSTLSCKNKIISFEEMDPPENIDDIQSDLIFFQKRVPGHNKMEFESSLYEGHFLACQKEDDAFKLILKKKDENGDKSVMFTLTNLHQS
notes: recombinant from E. coli with C-terminal hexahistidine tag in SPR; also called mIL-18 WT; WT mIL-18
For B1, the “KD ratio: IL-18BP/IL-18Rα” value [1] was 0.00183, the “IL-18 BP:Ra Dissociation Constant Ratio” value [2] was 1 and the “KD ratio: IL-18BP/IL-18Rα” value [3] was 0.188. For the same binder, the “EC50 (read off the curve)” value [4] was about 0.01 µM.

B2: mA7 (ligand)
chain: YFGRLHCTTAVIRNINDQVLFVDKRQPVFEDMTDIDQSASEPQTRLIIYAYGDNRVRGKAVTLSVKDSKMSTLSCKNKIISFEEMDPPENIDDIQSDLIFFQKRVPGHNKMEFESSLYEGHFLACQKEDDAFKLILKKKDENGDKSVMFTLTNLHQS
notes: recombinant with C-terminal hexahistidine tag in SPR
B2 was tested, and the “KD ratio: IL-18BP/IL-18Rα” value [5] was 63200, the “IL-18 BP:Ra Dissociation Constant Ratio” value [6] was 3.5e+07 and the “KD ratio: IL-18BP/IL-18Rα” value [7] was over 741. For the same binder, the “EC50 (read off the curve)” value [4] was about 0.01 µM.

B3: 6-29 (ligand)
chain: YFGKLESKLSVIRNLNDQVLFIDQGNRPLFEDMTDSDCRDNAPRTIFIISKYSDSRARGLAVTISVKCEKISTLSCENKIISFKEMNPPDNIKDTKSDIIFFQRNVPGHGRKMQFESSSYEGYFLACEKERDLFKLILKKEDELGDRSIMFTVQNED
notes: recombinant with C-terminal hexahistidine tag in SPR and cell assays; also called h6-29; version 2.0 human DR-IL-18 variant
With B3 the “EC50 (read off the curve); HEK-Blue IL-18 SEAP reporter, OD 655 nM” value [8] was about 0.0009 µM, the “IL-18 BP:Ra Dissociation Constant Ratio” value [9] was over 7.59e+06 and the “Dissociation Constant Ratio normalized to WT IL-18” value [10] was over 8000. For the same binder, the “KD ratio: IL-18BP/IL-18Rα” value [11] was 540.

B4: hCS2 (ligand)
chain: YFGKLESKLSVIRNLNDQVLFIDQGNRPLFEDMTDSDCRDNAPRTIFIISTYKDKQPRAKAVTISVKCEKISTLSCENKIISFKEMNPPDNIKDTKSDIIFFQRDVPGHKHKMQFESSSYEGYFLACEKERDLFKLILKKEDELGDRSIMFTIQNED
notes: as for B2
In the case of B4, the Kd [12] is reported as 0.0915 µM and the “KD ratio: IL-18BP/IL-18Rα” value [11] is reported as over 219.

B5: hCS4 (ligand)
chain: RFGKLESKLSVIRNLNDQVLFIDQGNRPLFEDMTDSDCRDNAPRTIFIISTYRDSQPRGKAVTISVKCEKISTLSCENKIISFKEMNPPDNIKDTKSDIIFFQRNVPGHKYKMQFESSSYEGYFLACEKERDLFKLILKKEDELGDRSIMFTVQNED
notes: recombinant with C-terminal hexahistidine tag in SPR and cell assays
For B5, the “IL-18 BP:Ra Dissociation Constant Ratio” value [9] was 32200, the “KD ratio: IL-18BP/IL-18Rα” value [13] was 41.8 and the “KD ratio: IL-18BP/IL-18Rα” value [14] was over 125.
